Where two headings read alike, the source gives them in different places.
Assays:
HCT15-hPDL1 cells = experiment: cells; assay type: cell-based, human; conditions: 5 days exposure, read-out: HCT15-hPDL1 cell IC50
Description: The cell line was named as HCT15-hPDL1.
(§1) The in vitro anti-tumor activity was determined by CellTiter-Glo® Luminescent Cell Viability Assay (Promega) according to the manufacturer's instructions. […] Untreated cells served as control. ADCs, antibodies, or payloads in 100 μL medium were added in duplicate at various concentrations with a 2-fold dilution series starting with concentrations of 1 uM, respectively. Cells were exposed to test articles for 5 days. Absorbance was measured at 450 nm by a microplate reader. The cell survival rate (%) was calculated using the following formula: sample/control×100%.

CathepsinB = CathepsinB (Homo sapiens, UniProt P07858); experiment: Digestion of the drug-linkers by CathepsinB; conditions: 125 nM enzyme, 62.5 μM drug-linker, pH 5.5, 37° C., 3 hours
Description: To simulate the release of drug under physiological conditions, the drug-linkers were subjected to cleavage by CathepsinB, after which an elimination reaction occurred and unmodified drug was released.
Lyophilized CathepsinB enzyme powder was dissolved in 130 μL of pure water, and divided into 13 tubes of 10 μL each. […] Activation buffer (20 mM sodium acetate, 30 mM DTT, 15 mM EDTA, pH 5.5) was then added to a tube of enzyme to activate the enzyme for 1 hour at room temperature.

PC3-hPDL1-hTROP2 cells = experiment: cells; assay type: cell-based, human; conditions: 5 days exposure, read-out: PC3-hPDL1-hTROP2 cell IC50
Description: as §1

HCT15-hPDL1-hTROP2 cells = experiment: In vitro cytotoxicity, HCT15-hPDL1-hTROP2 cells; assay type: cell-based, human
Description: The cell line was named as HCT15-hPDL1-hTROP2.
as §1

[1] = Stability of SN-38 (lactone / lactone ring opening vs pH); assay type: physicochemical
Description: A hydrochloric acid solution with a pH of 4 and a sodium hydroxide solution with a pH of 10 were prepared respectively. 5 mg of SN-38 was dissolved in 5 mL of acetonitrile. The stability of SN-38 in a solution of changing pH (pH=10 to pH=4) was measured by shaking SN-38 at room temperature under pH=10 for 10 min, then adjusting the pH back to 4 and shake at room temperature for 10 min before sampling. SN-38 was then incubated at room temperature overnight (16 h) on a shaker and assayed afterwards.

[2] = tested on: T1, uPA substrate peptide SEQ ID NO: 54
T1 sequence: GSGRNAQV

[3] = tested on: T2, uPA substrate peptide SEQ ID NO: 52
T2 sequence: LGGSGRSANAILE

[4] = tested on: T3, uPA substrate peptide SEQ ID NO: 50
T3 sequence: LSGRSDNH

[5] = tested on: T4, uPA substrate peptide SEQ ID NO: 53
T4 sequence: LGGSGRNAQVRLE

[6] = tested on: T5, uPA substrate peptide SEQ ID NO: 51
T5 sequence: SGRSA

[7] = alkaline conditions 10 minutes, then acidic conditions (pH 10→4) before testing
[8] = pH 10→4, after incubation overnight (16 h)

Tissue-type Plasminogen Activator (tPA), sequence (P00750 36-562): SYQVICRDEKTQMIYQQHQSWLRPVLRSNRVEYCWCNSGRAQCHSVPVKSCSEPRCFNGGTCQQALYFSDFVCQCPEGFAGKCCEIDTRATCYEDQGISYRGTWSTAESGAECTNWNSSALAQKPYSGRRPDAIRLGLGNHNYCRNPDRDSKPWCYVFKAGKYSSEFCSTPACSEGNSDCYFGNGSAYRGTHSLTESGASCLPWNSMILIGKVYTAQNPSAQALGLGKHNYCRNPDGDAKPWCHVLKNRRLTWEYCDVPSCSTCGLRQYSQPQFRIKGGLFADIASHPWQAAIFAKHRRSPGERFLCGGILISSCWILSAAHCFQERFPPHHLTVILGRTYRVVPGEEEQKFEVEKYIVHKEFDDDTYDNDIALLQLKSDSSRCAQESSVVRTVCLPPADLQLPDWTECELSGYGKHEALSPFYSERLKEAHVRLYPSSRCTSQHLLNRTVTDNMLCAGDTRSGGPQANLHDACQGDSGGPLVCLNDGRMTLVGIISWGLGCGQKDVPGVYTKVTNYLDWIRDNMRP

## Glycine3-amido-PEG8-VC-PAB-DMAE-α-hydroxy lactone linked SN38 [Compound of Formula (2)]
HCT15-hPDL1 cells
  IC50: 38.1 nM
CathepsinB
  CathepsinB digestion: effectively digested
  Product released on CathepsinB digestion: SN38 derivatives
PC3-hPDL1-hTROP2 cells
  IC50: 53.1 nM

## CCc1c2c(nc3ccc(O)cc13)-c1cc3c(c(=O)n1C2)COC(=O)[C@]3(O)CC [SN38, 7-ethyl-10-hydroxy-20(S)-camptothecin]
HCT15-hPDL1 cells; Homo sapiens, 120 h
  IC50: 11.2 nM
HCT15-hPDL1-hTROP2 cells; HCT15-hPDL1-hTROP2 cells
  Maximum Inhibitory Rate: >99.9%
HCT15-hPDL1-hTROP2 cells; Homo sapiens, 120 h, 5 days exposure, read-out: HCT15-hPDL1-hTROP2 cell IC50
  IC50: 9.57 nM
PC3-hPDL1-hTROP2 cells; Homo sapiens, 120 h
  IC50: 8.69 nM
[1]; acidic conditions (pH 4)
  existing as lactone: 94%
[1]; [7]
  lactone ring-opening products: 42%
  present in the form of lactone: 56%
[1]; alkaline conditions (pH 10)
  lactone ring-opened form: 92%
[1]; [8]
  in the form of lactone: 86%
  lactone ring-opening products: 13%

## Tissue-type Plasminogen Activator (tPA)
[2]
  Fluorescence Intensity, Fold of Increase, tPA digestion at 2.25 × 10^-2 mg/mL (FRET): 2.6 fold
  Fluorescence Intensity, Fold of Increase, tPA digestion at 7.5 × 10^-3 mg/mL (FRET): 0.91 fold
[3]
  Fluorescence Intensity, Fold of Increase, tPA digestion at 2.25 × 10^-2 mg/mL (FRET): 2.1 fold
  Fluorescence Intensity, Fold of Increase, tPA digestion at 7.5 × 10^-3 mg/mL (FRET): 1.2 fold
[4]
  Fluorescence Intensity, Fold of Increase, tPA digestion at 2.25 × 10^-2 mg/mL (FRET): 1.1 fold
  Fluorescence Intensity, Fold of Increase, tPA digestion at 7.5 × 10^-3 mg/mL (FRET): 0.63 fold
[5]
  Fluorescence Intensity, Fold of Increase, tPA digestion at 2.25 × 10^-2 mg/mL (FRET): 1.3 fold
  Fluorescence Intensity, Fold of Increase, tPA digestion at 7.5 × 10^-3 mg/mL (FRET): 0.73 fold
[6]
  Fluorescence Intensity, Fold of Increase, tPA digestion at 2.25 × 10^-2 mg/mL (FRET): 5.4 fold
  Fluorescence Intensity, Fold of Increase, tPA digestion at 7.5 × 10^-3 mg/mL (FRET): 2.1 fold

## Urokinase-type Plasminogen Activator (uPA)
[2]
  Fluorescence Intensity, Fold of Increase, uPA cleavage (FRET): 4.7 fold
  Fluorescence Intensity, Time to Reach Plateau (h), uPA cleavage (FRET): 1.4 h
[3]
  Fluorescence Intensity, Fold of Increase, uPA cleavage (FRET): 3.1 fold
  Fluorescence Intensity, Time to Reach Plateau (h), uPA cleavage (FRET): 1.4 h
[4]
  Fluorescence Intensity, Fold of Increase, uPA cleavage (FRET): 4.9 fold
  Fluorescence Intensity, Time to Reach Plateau (h), uPA cleavage (FRET): 1.7 h
[5]
  Fluorescence Intensity, Fold of Increase, uPA cleavage (FRET): 3 fold
  Fluorescence Intensity, Time to Reach Plateau (h), uPA cleavage (FRET): 1.6 h
[6]
  Fluorescence Intensity, Fold of Increase, uPA cleavage (FRET): 9.6 fold
  Fluorescence Intensity, Time to Reach Plateau (h), uPA cleavage (FRET): 1.8 h

## Glycine3-amido-PEG8-VC-PAB-DMAE-phenol linked SN38 [Compound of Formula (1)]
CathepsinB
  Product released on CathepsinB digestion: SN38
PC3-hPDL1-hTROP2 cells
  IC50: > 250 nM

Source: US20240299576A1, “TARGETING […] MOLECULES AND USES THEREOF” (priority 2021, published 2024)
